Legend:
RSV F on RSV-A2 virus = RSV F on RSV-A2 virus (Respiratory Syncytial Virus (RSV-A2), UniProt P03420 26-574); experiment: cell-based or functional assay
[1] = molecular target: RSV prefusion F (preF), DS-Cav1 (Respiratory Syncytial Virus, UniProt P03420 26-513); experiment: BLI, IgG on anti-human IgG sensor, 100 nM antigen, 1:1 fit
[2] = molecular target: RSV postfusion F (postF), F ΔFP (Respiratory Syncytial Virus, UniProt P03420 26-513); experiment: as above

Row | Binder | Neutralization IC50 (RSV subtype A) (RSV F on RSV-A2 virus) | Kd [1] | Kd [2]
1 | ADI-41527 (antibody, V domains shown, also called Ab 799; Antibody Number 799) VH: EVQLLESGGGLVQPGGSLRLSCAASGFTFTSYWMSWVRQAPGQGLEWVATIKQDGSEKYYVDSVKGRFTISRDNAKNSLYLQMNSLGAEDTAVYYCARDMYCSTTTCYFFETYYYNGMDVWGQGTTVTVSS VL: DIRLTQSPSSVSASVGDRVTITCRASQVTSTWLAWYQQNPGKAPKLLIYAASRLQSGVPSRFSGSGSGTEFTLTISSLQPEDFATYYCQQANSFPLTFGGGTKVEIK | > 25 µg/mL | 0.712 nM | 0.337 nM
2 | ADI-41498 (antibody, V domains shown, also called Ab 778; Antibody Number 778) VH: EVQLLESGGGLVKPGGSLRLSCAASGFIFSDYAMNWVRQTPGKGLEWVSSISDSSAYKYYTGSVSGRFTISRDNAKNSLYLQMNDLRPEDTAVFYCARGQWRCSGASCYSPFDSWGQGTLVTVSS VL: SYELTQPPSVSVAPGQTARIPCGGNNIESKNVHWYQQKPGQAPVLVVYDDSDRPSGIPERFSGSNSGSTATLTISRVEAGDEADYYCHVWHRSGDLREVFGSGTKVTVL | > 25 µg/mL | 1.22 nM | 0.22 nM
3 | ADI-41496 (antibody, V domains shown) VH: QVQLVQSGAEVKKPGASVKVSCKASGYTFTSDDINWVRQATGQGLEWMGWMNPNSGDTGYAQKFQGRVTMTRDTSISTAYMELSSLRSEDTAVYYCARVRIQCSGGRCSYWFFDLWGRGTLVTVSS VL: QSALTQPASVSGSPGQSITISCIGTSSDVGNYNLVSWYQHHPGKAPKVMIYEVNERPSGVSNRFSGSKSGNTASLTISGLQAEDEADYYCCSYAGRSTWVFGGGTKLTVL | > 25 µg/mL | 1.65 nM | 1.37 nM
4 | ADI-41497 (antibody, V domains shown) VH: QVQLVESGGGVVQPGRSLRLSCAASGFTFSNHAMHWVRQAPGKGLEWLSFISYDGGVNFYRDSVKGRFTISRDNSKNTLYLQMSSLRPEDTAVYYCARDRVGRVVGASYYLDYWGRGALVTVSS VL: QSVVTQPPSVSVAPGQTASITCGGKHIGSKSVHWYQQKPGQSPVLVVHDDSDRPSGILERFSGSNSGNTATLTINRVEAGDEADYYCQVWDNASDHPYVFGPGTKVTVL | > 25 µg/mL | 1.44 nM | 0.268 nM
5 | ADI-41532 (antibody, V domains shown) VH: QVQLVQSGAEVKKPGESLKISCKGSGYSFTSSWIGWVRQMPGKGLEWMGIIYPGDSDTRYSPSIQGRVTISADKSITTAYLQWSSLKASDTATYYCAKFGGYADAYFYHGMDVWGQGTTVTVSS VL: not shown | > 25 µg/mL | 1.92 nM | 0.392 nM
6 | ADI-41502 (antibody, V domains shown, also called Ab 781; Antibody Number 781) VH: QVQLVQSGAEVKKPGSSVKVSCKASGGPFSSDAMSWVRQAPGQGLEWMGGIIPILGSATYAQKFKGRVTIAADESTSTSYMELSGLKYEDTAVYYCARPFYDPLTGYFDTFNVWGQGTTVTVSS VL: QSVLTQPRSVPGSPGQSVTISCTGTSGDVGGYNYVSWYQQHPGKAPKLVIYDVTKRPSGVPDRFSGSKSGNRASLTISGLQAEDEADYYCCSYAGSQTGYVFGTGTKVTVL | > 25 µg/mL | 1.34 nM | 0.308 nM
7 | ADI-41526 (antibody, V domains shown) VH: QVQLVQSGAEVKKPGASVKVSCEASGYTFTDYYMHWVRQAPGQGLEWMGWINPNSGVTKIAQNFQGRVTMTRDTSITTAYMDLSRLRSDDTAVYYCARVVDGDYDNWFDFWGQGTLVTVSS VL: SYVLTQPPSASGTPGQRVTISCSGSTSNIGTNTVNWYQQPPGMAPKLLIYANNQRPSGVPDRFSGSKSGTSASLAISGLQSEDEADYHCAVWDDSLPGWVFGGGTKLTVL | > 25 µg/mL | 0.301 nM | 0.336 nM
8 | ADI-41503 (antibody, V domains shown) VH: EVQLLESGGGLVQPGGSLRLSCAASGFTFSDFPLSWVRQAPGKGLVWVSAISSSGGDTYYADSVKGRFTISRDSSKNALYLQMNSLRAEDTAVYYCAKGQELLRPYYYGMDVWGQGTTVTVSS VL: QSALIQPASVSGSPGQSITISCTGTSSDVGGYNFVSWYQQHPGKAPKLMIFEVSNRPSGVSHRFSGSKSGNTASLTISGLQAEDEADYYCSSCTSRFTYVFGTGTKLTVL | > 25 µg/mL | 3.14 nM | 0.493 nM
9 | ADI-41504 (antibody, V domains shown, also called Ab 783; Antibody Number 783) VH: EVQLLESGPGLLKTSETLSLTCTVSDGSISGYYWTWIRQPPGKGLECIGYISYSGSTNYSPSLKSRVTISVDTSKNQFSLKLSSVTAADTAVYYCAKIGGYCNPTKCYGWFDPWGQGTLVTVSS VL: QPVLTQPPSVSGAPGQRVTISCTGSSSNIGAGYDVHWYQQLPGTAPKLLIFGNTNRPSGVPDRFSGSKSGTSASLAITGLQAEDEAAYYCQSYDSSLFYVVLGGGTKLTVL | > 25 µg/mL | 2.8 nM | 0.508 nM
10 | ADI-41531 (antibody, V domains shown, also called Ab 803; Antibody Number 803) VH: EVQLLESGGDLVQPGGSLRLSCAASGFTFFSYALNWVRRTPGKGLEWVSGISGSGGSTYYADSVKGRFTISRDNSKSTLYLQMNSLKVDDTAVYFCAKDFQHDYGDPYRSYYFDHWGQGTLVTVSS VL: DIQLTQSPSSLAASVGDRVTITCQASRDIRKSLNWYQVKPGKAPKLLISDASYLETGVPPRFSGSGFGTHFTFTISSLQPEDIATYYCQQYDNLPPPTFGGGTKVDIK | > 25 µg/mL | 2.08 nM | 0.377 nM
11 | ADI-41529 (antibody, V domains shown) VH: EVQLVQSGAEVRRPGSSVKVSCKASGGTLDTDSISWVRQVPGQGLVWVGGVIPILGSVVYARKFQGRVTITADGSTSTAYMELRSLRSEDTAMYYCASQFYDFRRGYFDAFDIWGQGTTVTVSS VL: ETTLTQSPGILSLSPGERATLSCRATQTVISNYINWYQQKPGQAPRLLIYGASSRATGIPDRFSGSGSGTDFTLTISRLEPEDFAVYYCQRYDSSPPGFTFGPGTKVDIK | > 25 µg/mL | 1.03 nM | 0.351 nM
12 | ADI-41499 (antibody, V domains shown) VH: EVQLVESGGVVVQPGGSLRLSCAASGFSFDDYTMYWVRQAPEKGLEWISLISWNGGVTYYPDSVKGRFTVSRDNNKNSLYLQMDSLRPEDSAFYYCAKESLESSGHFLDYWGQGTLVTVSS VL: QPVLTQSRSVSGSPGQSVTISCIGTNSDVGGYHYVSWFQHHPGKAPKLMIYDVSRRPSGVPARFSGSKSGNTASLSISGLRAEDEADYYCCSFAGTYTPYVFGTGTKLTVL | > 25 µg/mL | 1.99 nM | 0.297 nM
13 | ADI-41528 (antibody, V domains shown, also called Ab 800; Antibody Number 800) VH: EVQLVESGGGVVQPGRSLRLSCAASGFTFSSYAMHWVRQAPGKGLEWVAVISFDGSSDYYADSVKGRFTISRDSSKNTLYLRMNSLRAEDTAVYYCARRAVEYSIYNNDAFDVWGQGTTVTVSS VL: SYELTQPPSVSVSPGQTASITCSGDKLGNKFTFWYQQKSGQSPVLVIYQETKRPSGIPERFSGSNSGNTATLTISGTQSMDEADYYCQAWDSSTAFFGGGTKLTVL | > 25 µg/mL | 2.28 nM | 0.348 nM
14 | ADI-41534 (antibody, V domains shown, also called Ab 806; Antibody Number 806) VH: QVQLVQSGGGVVQPGRSLRLSCAASGFTFSNYAMHWVRQAPGKGLEWVTLISYDGSAQDYADSVKGRITISRDNSKNTLYLQMSSLRPEDTAVYYCARYYCTNDVCSSSALDIWGQGTTVTVSS VL: SYELIQPPSVSVSPGQTASITCSGDKLGNKFTCWYQQKPGQSPVLVIYQDSKRPSGIPERFSGSNSGNTATLTISGTQAMDEADYYCQAWDSSTVVFGGRTKLTVL | > 25 µg/mL | 3.31 nM | 0.472 nM
15 | ADI-41533 (antibody, V domains shown) VH: QVQLVESGGGVVQPGRSLRLSCAASGFTFSSYAMHWVRQAPGKGLEWLAVISFDGSSEFYGDSVRGRFTISRDNSKNTLYLRVNSLRAEDTALYYCARRSLKYSMYNNDAFDVWGQGTTVTVSS VL: QPVLTQPPSVSVSPGQTASITCSGDKLGNKFTFWYQQKSGQSPVLVIYQESQRPSGIPERFSGSNSGNTATLTIRGAQAMDEADYYCQAWDSSTAFFGGGTKLTVL | > 25 µg/mL | 1.47 nM | 0.423 nM
16 | ADI-41508 (antibody, V domains shown, also called Ab 786; Antibody Number 786) VH: QVQLVQSGAEVRKPGASVKVSCKASGYGFRSYDLTWVRQAPGKGLEWVGWISAYSGGTNYAQTLQGRVTMTTDTSTSTAYMELRSLGPDDTAVYYCARAGLYGSGSPDGFDSWGQGTLVTVSS VL: SYELTQPPSVSVSPGQTASITCSGDKLGDKYASWYQQRPGQSPVLVISQDTKRPSGIPERFSGSTSGNTAILTISGTQAMDEADYYCLAWDSSTAWVFGGGTKLTVL | 0.1 µg/mL | 4.15 nM | 0.555 nM
17 | ADI-41530 (antibody, V domains shown, also called Ab 802; Antibody Number 802) VH: QVQLVESGAEVKKPGASVKVSCRASGYTFSAYDINWVRQAPGQGLEWVGWMNPNSGNTGYALRFQGRVTMTRDTSINTAYMELSSLRSDDTAVYYCAAQLWYPNWGQGTLVTVSS VL: SYELTQPPSVSVGLGQTASITCGGNNIGSKSVHWYQQKPGQAPTLVIYRDTNRPSGIPERFSGSNSENTATLTISRAQAGDEADFYCQVSDNYSWVFGGGTKLTVL | > 25 µg/mL | 1.91 nM | 0.355 nM
18 | ADI-41536 (antibody, V domains shown, also called Ab 808; Antibody Number 808) VH: EVQLVESGAGLLKPSETLSLTCVVYGGSFSGYYWSWIRQPPGKGLEWVGDINHSTTTNYNPSLESRITISIDTSKNQFSLNLSSVTAADSAVYYCARGPKECTSSSCDRFGVDYFYYGMDVWGRGTTVTVSS VL: QSVLTQPPSVSGAPGQRVTISCTGSSANIGAGYDVHWYQQFPGTAPKLLIFGNSNRPSGVPDRFSGSKSGTSASLAITGLQAEDEADYYCQSYDGTLGGWVFGGGTQLTVL | > 25 µg/mL | 3.05 nM | 0.476 nM
19 | ADI-41535 (antibody, V domains shown) VH: QVTLKESGPALVKPTQTLTLTCTFSGFSLSTSRMCVSWIRQSPGKALEWLARIDWDDDKFFSTSLKTRLTISKDTSRNQVVLTMTNMDPVDTATYYCARTTVYASGGYYLYYFDYWGQGTLVTVSS VL: DIQLTQSPSSLPASVGDRVTITCRASQRIASYLNWYQQKPGKAPKVLIYAASNLQSGVPSRFSGSGSGTDFTLTINSLQPEDFATYYCQQSYTTPWTFGQGTKVEIK | > 25 µg/mL | 1.93 nM | 0.476 nM
